Data as given in publication doi:10.1101/2025.02.03.636340.

Biological target: HA-SNAP-mGluR3 (rat metabotropic glutamate receptor 3) (rat), P31422
Test: SiMPull with photobleaching step analysis
Conditions: remark: other sources report otherwise

B1: HA-SNAP-mGluR3 (rat metabotropic glutamate receptor 3), P31422 23-879 (receptor)
chain: LGDHNFMRREIKIEGDLVLGGLFPINEKGTGTEECGRINEDRGIQRLEAMLFAIDEINKDNYLLPGVKLGVHILDTCSRDTYALEQSLEFVRASLTKVDEAEYMCPDGSYAIQENIPLLIAGVIGGSYSSVSIQVANLLRLFQIPQISYASTSAKLSDKSRYDYFARTVPPDFYQAKAMAEILRFFNWTYVSTVASEGDYGETGIEAFEQEARLRNICIATAEKVGRSNIRKSYDSVIRELLQKPNARVVVLFMRSDDSRELIAAANRVNASFTWVASDGWGAQESIVKGSEHVAYGAITLELASHPVRQFDRYFQSLNPYNNHRNPWFRDFWEQKFQCSLQNKRNHRQVCDKHLAIDSSNYEQESKIMFVVNAVYAMAHALHKMQRTLCPNTTKLCDAMKILDGKKLYKEYLLKINFTAPFNPNKGADSIVKFDTFGDGMGRYNVFNLQQTGGKYSYLKVGHWAETLSLDVDSIHWSRNSVPTSQCSDPCAPNEMKNMQPGDVCCWICIPCEPYEYLVDEFTCMDCGPGQWPTADLSGCYNLPEDYIKWEDAWAIGPVTIACLGFLCTCIVITVFIKHNNTPLVKASGRELCYILLFGVSLSYCMTFFFIAKPSPVICALRRLGLGTSFAICYSALLTKTNCIARIFDGVKNGAQRPKFISPSSQVFICLGLILVQIVMVSVWLILETPGTRRYTLPEKRETVILKCNVKDSSMLISLTYDVVLVILCTVYAFKTRKCPENFNEAKFIGFTMYTTCIIWLAFLPIFYVTSSDYRVQTTTMCISVSLSGFVVLGCLFAPKVHIVLFQPQKNVVTHRLHLNRFSVSGTATTYSQSSASTYVPTVCNGREVLDSTTSSL
modifications: here or on the partner: SNAP tag labelled with SBG-JF646; SNAP tag labelled with SBG-JF646
- % of spots with 2 bleaching steps in the receptor channel: 50%
- stoichiometry N: 2
